Results published in publication PMC11240955, “Stability Engineering of Recombinant Secretory IgA” (International Journal of Molecular Sciences, 2024).

Target: T1, receptor-binding domain (RBD) of the SARS-CoV-2 spike, R319-F541, with a C-terminal 6xHis-tag (SARS-CoV-2, UniProt P0DTC2)
T1 construct: also called RBD-His; not shown: His6, C-terminal, kept
Assay: ELISA
Conditions: both partners purified

B1: COVA2-15 monomeric IgA2m(1)_D133C (antibody, V domains shown)
VH: QVQLLESGGGLVQPGGSLRLSCAASGFTFSSYAMSWVRQAPGKGLEWASAISGSGGSTYYADSVEGRFTISRDNSKNTLYLQMNSLRAEDTAVYYCAKDTGYCGDDCYIKLIRGGPDYWGQGTLVTVSS
VL: DIVMTQSPLSLPVTLGQPASISCRSSQSLVYSDGNTFLNWFQQRPGQSPRRLIYQVSNRDSGVPDRFSGSGSGTDFTLKISRVEAEDVGVYYCMQGTHWPRTFGQGTKLEIK
notes: no single major 160 kDa peak in SEC; also called COVA2-15 mIgA2m(1)_D133C; mIgA2m(1)_D133C; copies: 2 + 2
- binding result: binds
